# Experimental data as given in US8691536B2, “Pectin lyase, pectin lyase polynucleotide, enzyme preparation, and method for producing single cells of plant tissue” (Bio-I Co., Ltd., priority 2009, dated 2014).
# B1: pectin lyase of the present invention: Pectin lyase with maceration activity purified from Aspergillus niger NBRC31125; SEQ ID NO: 2; PLA mutant differing in 9 amino acids from N400 PLA (protein, listed as Aspergillus sp.)
# chain: VGVSGSAEGFAEGVTGGGSATPVYPDTIDELVSYLGDDEARVIVLTKTFDFTDSEGTTTGTGCAPWGTASACQVAIDQDDWCENYEPDAPSVSVEYYNAGTLGITVTSNKSLIGEGSSGAIKGKGLRIVSGAENIIIQNIAVTDINAKYVWGGDAITLDDCDLVWIDHVTTARIGRQHYVLGTSADNRVSLTNNYIDGVSDYSATCDGYHYWAIYLDGDADLVTMKGNYIYHTSGRSPKVQDNTLLHAVNNYWYDISGHAFEIGEGGYVLAEGNVFQNVDTVLETYEGEAFTVPSTTAGEVCSTYLGRDCVINGFGSSGTFSEDSTSFLSDFEGKNIASASAYTSVASSVVANAGQGNL
# Tests used:
# sweet potato discs [1] = assay: Maceration activity, sweet potato disc decay at 45° C. in McIlvaine buffer; assay type: biochemical; details: for specific maceration activity relative to N400 strain PLA: per 1 mg of protein, at optimal pH
# Description: The maceration activity was measured as described below. First, sweet potato discs were prepared in the same manner as described above. Then, 50 μL of enzyme solution and 450 μL of buffer were placed in a test tube and mixed, forming a test solution held at a constant temperature of 45° C., then 1 of the above sweet potato discs were placed therein, and a reaction was initiated. A McIlvaine buffer was used as the buffer, and the ionic strength of the test solution (total of 500 μL) was adjusted in advance to I=0.3 or 0.5, using KCl. After the reaction started, stirring was carried out in the manner described above, and the degree of decay was visually observed. Three specimens each were prepared under the various conditions, and reactions of specimens under identical conditions were initiated simultaneously. The strength of the maceration activity under those conditions was expressed by the reciprocal of the time needed for any 2 of the sweet potato discs of the 3 specimens under identical conditions (total of 3) to almost uniformly decay.
# [2] = pH stability of pectin lyase; assay type: physicochemical; details: 24 hours at 4° C., activity then measured at pH 4.5, 25° C.
# Description: (§1) It should be noted that a 20 mM phosphate buffer was used for the pH 6.0-7.5 enzymatic reaction solution, and a 50 mM Tris-HCl buffer was used for the pH 7.5-9.5 enzymatic reaction solution. In cases where a McIlvaine buffer was used in a pH range of 3-6, the pectin lyase activity was measured in the same manner. Moreover, in order to determine the pH stability, the pH of enzyme solutions containing purified enzymes was adjusted to 3.0, 4.0, 5.0, 6.0, 7.0, 8.0, 9.0 and 10.0, using either HCl or NaOH. After allowing these enzyme solutions to stand for 24 hours at 4° C., the pectin lyase activity was measured at 25° C. using a 50 mM acetate buffer (pH 4.5).
# The pH stability was evaluated using the formula (activity after standing/activity before standing)×100. As a result, the specific activity and the pH stability of pectin lyase at various pH levels are represented in the graph in FIG. 1, where 1.0 is pectin lyase at pH 4.5. The optimal pH for pectin lyase activity according to the present invention was 4.5 in the acetate buffer, and 4.8 in the McIlvaine buffer, and was thus found to be stable in a pH range of 3-6.
# [3] = Test to determine the maximum temperature of pectin lyase / heat deactivation; assay type: physicochemical; details: 15 minutes at 121° C.
# [4] = Effects of metallic ions on pectin lyase activity; assay type: biochemical; details: Ca^2+ 1 mM, acetate buffer pH 4.5, 25° C.
# Description: Tests were conducted on the effects of metallic ions (Ca^2+, Ba^2+, Co^2+, Cu^2+, Mg^2+, Mn^2+, Zn^2+, and Fe^2+) of pectin lyase having maceration activity produced from the strain Aspergillus niger NBRC31125 on pectin lyase activity.
# The test method involved the use of chlorides of various metals, and adjusting their final concentration in the enzymatic reaction solution to 1 mM, and calculating the percentage of change in activity depending on the presence or absence of metallic ions. The enzymatic reaction solution used a 50 mM acetate buffer and a pH of 4.5, and measurements were taken at 10-minute intervals at 25° C.
# [5] = Pectin lyase activity (absorbance at 235 nm, acetate buffer); assay type: biochemical
# Description: An example of a method for measuring pectin lyase activity is to measure over time the absorbance of the maximum absorption wavelength at 235 nm by unsaturated polygalacturonid formed as a result the substrate being degraded by enzymatic action. In the alternative, other publicly-known methods may be used.
# First, 50 μL of a solution of 2 wt. % of pectin (SIGMA/P9436, derived from citrus fruit) adjusted to pH 4.5 using NaOH or HCl, and 50 μL of enzyme solution were prepared. The 50 μL of wt. 2% pectin solution was mixed with 400 μL of 50 mM acetate buffer (pH 4.5) to prepare in advance a total of 450 μL, to which 50 μL of enzyme solution is to be added for a total of 500 μL as an enzymatic reaction solution to be used when measuring activity. In order to ensure uniform diffusion of the substrate in the reaction solution and to achieve stabilization, NaCl is added to obtain a final concentration of 0.1 M.
# The enzyme solution and the enzymatic reaction solution without the enzyme solution are each incubated for 10 minutes at 25° C., after which 50 μL of the enzyme solution is mixed with 450 μL of the enzymatic reaction solution without the enzyme solution. An enzymatic reaction is then initiated, and measurements of absorbance at 235 nm are taken continuously for 10 minutes at 25° C. using a spectrometer. The amount of resulting unsaturated polygalacturonid is computed using a molecular absorbance coefficient of 5200 (M^−1cm^−1) (Paloma Sanchez-Torres, Jeap Visser, and Jacques A. E. Benen, Biochem. J., 370, 331-337, Feb. 15, 2003), and 1 unit (1 U) of pectin lyase activity was set at the amount of unsaturated polygalacturonid formed per 1 μmmol of unsaturated digalacturonid per minute.
# In order to determine the optimal pH for pectin lyase activity of pectin lyase having maceration activity produced from the strain Aspergillus niger NBRC31125, the enzyme activity at various pH levels was measured using the above-described enzymatic reaction solution with modified pH (the enzymatic reaction solution described in [C] 2. (1) above).
# as §1
# [6] = Pectin lyase activity with HM pectin in McIlvaine buffer; assay type: biochemical
# Description: In order to determine the kM value of the isolated and purified pectin lyase having maceration activity (SIGMA/P9561, derived from citrus fruit, degree of esterification <90%), a McIlvaine buffer (0.1 M citric acid, 0.2 M phosphoric acid) adjusted to pH 4.8 was used in measuring the enzyme activity when the final concentration of pectin was changed.
# In addition, under conditions of 30° C., and within a pH range of 3.0-7.0, a McIlvaine buffer was used to measure the pectin lyase activity when the ionic strength of the various buffers was adjusted to 0.5 using KCl.
# The pectin lyase activity was measured as described below. First, a McIlvaine buffer was used in the enzymatic reaction solution, and an HM pectin substrate (SIGMA/P9561, derived from citrus fruit, degree of esterification <90%) was used to obtain a final concentration of 3 mg/mL. The ionic strength of the enzymatic reaction solution was adjusted in advance to I=0.3 or 0.5, using KCl, and the enzyme solution was 50 μL, and the total amount of the enzymatic reaction solution was 500 μL. Measurements were carried out in the same manner as in [C] 2. (2) (Paloma Sanchez-Tones, Jaap Visser, and Jacques A. E. Benen, Biochem. J., 370, 331-337, Feb. 15, 2003), except that the temperature was 30° C.
# sweet potato discs [7] = assay: Maceration activity, sweet potato disc decay at 30° C.; assay type: biochemical
# From the text: Maceration activity can be measured, for example, by immersing a sweet potato disc in the enzyme solution, and measuring the time elapsed until the sweet potato disc uniformly decays in the enzyme solution as a result of insoluble pectin being degraded by enzymatic action. In the alternative, other publicly-known methods may be used.
# A column 6 mm in diameter is removed from the center of a sweet potato using a cork borer. After using a knife to cut sweet potato discs about 0.3 mm thick, the discs are immersed for 60 seconds in 70% ethanol and then rinsed with distilled water. Into a test tube are placed 300 μL of enzyme solution with pH adjusted to 3.5 using HCl, and 200 μL of 50 mM acetate buffer (pH 3.5), and after these are mixed, a constant temperature is set at 30° C., and 3 of the above sweet potato discs are placed therein, and a reaction is initiated. Every 15 minutes after the reaction starts, agitation is carried out for 10 seconds using a test tube mixer, and the degree of decay is visually observed. The strength of the maceration activity is expressed by the reciprocal of the time needed for 2 of the 3 sweet potato discs to almost uniformly decay (Reference literature: Toshihiko Suganuma, Tetsuro Fukumoto, Youko Ikemizu, Katsuyuki Nakama, Shigeo Fujimoto, and Tomonori Nagahama, Bulletin of the Faculty of Agriculture, Kagoshima University, 37, 89-98, Mar. 16, 1987).
# A column 6 mm in diameter was removed from the center of a sweet potato (about 500 g) using a cork borer. After using a knife to cut sweet potato discs about 0.3 mm thick, the discs were immersed for 60 seconds in 70% ethanol and then rinsed with distilled water. Into a test tube were placed 300 μL of purified enzyme solution (1.30 μg/mL) and 200 μL of a buffer, and after these were mixed, a constant temperature was set at 30° C., and 3 of the above sweet potato discs were placed therein, and a reaction was initiated.
# The buffers were 50 mM acetate buffers with pH 3.0, 3.5, 4.0, 4.5, 5.0, and 6.0, a 50 mM HEPES buffer with pH 7.0, and 50 mM Tris-HCl buffers with pH 8.0 and 9.0. After starting the reaction, stirring was carried out for 10 seconds with a test tube mixer every 15 minutes, and the degree of decay was visually observed. The strength of the maceration activity was expressed by the reciprocal of the time needed for 2 of the 3 sweet potato discs to almost uniformly decay.
# In order to evaluate the strength of the maceration activity of the pectin lyase of the present invention, in a Comparative Example, two commercially available enzyme preparations, Macerozyme R10 and Pectolyase Y-23 were dissolved in purified water so that the amount of protein in the respective enzyme solutions was 1.30 μg/ml, and these were subjected to the test described above.
# [8] = McIlvaine buffer, I=0.3, 45° C.
# [9] = McIlvaine buffer pH 4.8, Lineweaver-Burk plot
molecule,measurement,setting,value
B1,optimal pH of maceration activity,sweet potato discs [1]; [8],4.0
same,specific maceration activity per 1 mg,sweet potato discs [1]; [8],7400 h⁻¹ mg⁻¹
same,optimal pH of maceration activity,"sweet potato discs [1]; McIlvaine buffer, I=0.5, 45° C.",5.0
same,ratio of the maceration activity to the pectin lyase activity,sweet potato discs [1]; maceration activity/pectin lyase activity of 1 mg of enzyme,72.5
same,specific maceration activity relative to N400 strain PLA,sweet potato discs [1],about 3 times
same,specific maceration activity relative to N400 strain PLA,sweet potato discs [1]; listed as protein of the present invention,3 times
same,specific maceration activity relative to N400 strain PLA,sweet potato discs [1]; listed as this pectin lyase,about 3 times
same,pH range in which stable,[2],3-6
same,deactivation by boiling treatment,[3],completely deactivated
same,Activity (%) vs. non-addition of ions,[4],120%
same,pectin lyase activity,"[5]; 50 mM acetate buffer pH 4.5, 25° C.",54.7 U/mg
same,optimal pH for pectin lyase activity,[5]; McIlvaine buffer,4.8
same,optimal pH for pectin lyase activity,[5]; acetate buffer,4.5
same,pectin lyase activity relative to crude enzyme solution,[5]; purified vs crude enzyme solution,61 times
same,optimal pH for pectin lyase activity,"[6]; 30° C., McIlvaine buffer pH 3.0-7.0, ionic strength 0.5 with KCl (FIG. 2)",4.8
same,specific pectin lyase activity,"[6]; 30° C., McIlvaine buffer, I=0.5, at optimal pH",102 U/mg
same,Km value,[6]; [9],5.4 mg/mL
same,Vmax value,[6]; [9],140 U/mg
same,optimal pH of pectin lyase activity,"[6]; McIlvaine buffer, I=0.3, 30° C.",4.0
same,optimal pH of pectin lyase activity,"[6]; McIlvaine buffer, I=0.5, 30° C.",5.0
same,optimal pH for maceration activity,"sweet potato discs [7]; 30° C., enzyme solution 1.30 μg/mL protein, buffers pH 3.0-9.0",~3.5
same,maceration activity per 390 ng of protein,"sweet potato discs [7]; at optimal pH, 30° C.",0.15 h⁻¹
same,specific maceration activity at pH 3.0 relative to Macerozyme R10,sweet potato discs [7]; pH 3.0,27.7 times
same,specific maceration activity at pH 3.0 relative to Pectolyase Y-23,sweet potato discs [7]; pH 3.0,15.6 times
same,maceration activity of enzyme solution used for pectin lysate,"sweet potato discs [7]; pH 3.0, 0.5 mL enzyme solution (500 ng purified pectin lyase; 2% Macerozyme A; 0.16% Pectolyase Y-23)",0.18 h⁻¹
same,maceration activity,sweet potato discs [7]; pH 5.0 or lower,maceration activity was observed
same,decay of sweet potato discs,"sweet potato discs [7]; pH 6.0, 7.0, 8.0, and 9.0",no decay occurred at all
